# Patent EP3107577B1 (IBC Pharmaceuticals, Inc., dated 2024)
# Where two headings read alike, the source gives them in different places.
# Assays:
# [1] = molecular target: T1, Trop-2 (human, UniProt P09758 27-323); test: cell-based or functional assay
# T1 sequence (looked up): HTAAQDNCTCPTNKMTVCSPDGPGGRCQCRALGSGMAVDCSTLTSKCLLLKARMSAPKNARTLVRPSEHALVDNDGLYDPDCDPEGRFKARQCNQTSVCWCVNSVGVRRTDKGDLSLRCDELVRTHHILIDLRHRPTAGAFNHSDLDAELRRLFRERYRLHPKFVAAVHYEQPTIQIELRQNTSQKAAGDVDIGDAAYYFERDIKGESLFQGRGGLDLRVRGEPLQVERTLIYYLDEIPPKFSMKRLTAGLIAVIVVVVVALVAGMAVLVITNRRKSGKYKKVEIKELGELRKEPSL
# [2] = molecular target: T2, mouse CD3 (mouse, UniProt P22646 22-108); test: not described (data not shown)
# T2 sequence (looked up): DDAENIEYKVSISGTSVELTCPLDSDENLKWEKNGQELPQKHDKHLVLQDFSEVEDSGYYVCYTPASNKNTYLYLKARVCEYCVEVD
# [3] = molecular target: T3, mouse Trop-2 (mouse, UniProt Q8BGV3 25-270, limits assumed); test: not described (data not shown)
# T3 sequence (looked up): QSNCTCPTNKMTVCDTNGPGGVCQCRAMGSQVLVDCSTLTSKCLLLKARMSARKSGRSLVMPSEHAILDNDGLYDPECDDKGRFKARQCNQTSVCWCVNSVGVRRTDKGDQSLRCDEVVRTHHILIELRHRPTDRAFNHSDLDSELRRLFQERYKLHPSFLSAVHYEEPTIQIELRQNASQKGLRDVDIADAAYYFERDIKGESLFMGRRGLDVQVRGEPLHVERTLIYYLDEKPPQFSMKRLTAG
# [4] = molecular target: T1, Trop-2; test: cell-based or functional assay; remark: listed apart in the source
# [5] = molecular target: T1, Trop-2; test: assay not described; specificity EGP-1 per Table 11
# [6] = molecular target: T1, Trop-2; test: as above; remark: listed apart in the source
binder,measurement,setting,value
"(E1)-3s (bispecific antibody, also called TROP2-targeting bsAb; anti-human Trop-2 x anti-human CD3 bispecific antibody; not shown: human CH1, hinge residues and Gly/Ser linker; human kappa constant domain) scFv: not shown heavy (part 1 of 2): QVQLQQSGSELKKPGASVKVSCKASGYTFTNYGMNWVKQAPGQGLKWMGWINTYTGEPTYTDDFKGRFAFSLDTSVSTAYLQISSLKADDTAVYFCARGGFGSSYWYFDVWGQGSLVTVSS heavy (part 2 of 2): not shown light: DIQLTQSPSSLSASVGDRVSITCKASQDVSIAVAWYQQKPGKAPKLLIYSASYRYTGVPDRFSGSGSGTDFTLTISSLQPEDFAVYYCQQHYITPLTFGAGTKVEIK","IC50, T cell redirected killing of BxPC3, Donor 1",[1],1.06 pM
same,"IC50, T cell redirected killing of BxPC3, Donor 2",[1],0.56 pM
same,"IC50, T cell redirected killing of BxPC3, Donor 3",[1],0.32 pM
same,"IC50, T cell redirected killing of Capan-1, Donor 1",[1],35.6 pM
same,"IC50, T cell redirected killing of Capan-1, Donor 2",[1],248 pM
same,"IC50, T cell redirected killing of Capan-1, Donor 4",[1],8.51 pM
same,"IC50, T cell redirected killing of NCI-N87, Donor 1",[1],6.76 pM
same,"IC50, T cell redirected killing of NCI-N87, Donor 2",[1],34 pM
same,binding result,[2],no binding
same,binding result,[3],no binding
same,"EC50, T-cell lysis of NCI-N87 cells, very weak donor T cells",[4],39 pM
same,"EC50, T-cell lysis of NCI-N87 cells, very weak donor T cells, with peginterferonalfa-2a",[4],1.4 pM
same,"IC50, T-cell killing of BxPC3 cells",[4],0.4 pM
same,"IC50, T-cell lysis of NCI-N87 cells, donor of very active T cells",[4],0.37 pM
same,"IC50, T-cell lysis of NCI-N87 cells, with 0.1 nM 20*-2b",[4],0.05 pM
same,"IC50, T-cell lysis of NCI-N87 cells, with 0.1 nM peginterferonalfa-2a",[4],0.14 pM
same,"IC50, T-cell mediated lysis of Capan-1 cells",[4],29 pM
same,"IC50, T-cell mediated lysis of NCI-N87 cells",[4],0.85 pM
"C-AD2-IgG-hRS7 (antibody, not shown: IgG heavy chain constant region and linker; kappa constant domain) heavy (part 1 of 2): QVQLQQSGSELKKPGASVKVSCKASGYTFTNYGMNWVKQAPGQGLKWMGWINTYTGEPTYTDDFKGRFAFSLDTSVSTAYLQISSLKADDTAVYFCARGGFGSSYWYFDVWGQGSLVTVSS heavy (part 2 of 2): CGQIEYLAKQIVDNAIQQAGC light: DIQLTQSPSSLSASVGDRVSITCKASQDVSIAVAWYQQKPGKAPKLLIYSASYRYTGVPDRFSGSGSGTDFTLTISSLQPEDFAVYYCQQHYITPLTFGAGTKVEIK",binding result,[5],binds
"C-DDD2-Fab-hRS7 (Fab, also called CH1-DDD2-Fab-hRS7; not shown: CH1, hinge residues and linker; kappa constant domain) heavy (part 1 of 2): QVQLQQSGSELKKPGASVKVSCKASGYTFTNYGMNWVKQAPGQGLKWMGWINTYTGEPTYTDDFKGRFAFSLDTSVSTAYLQISSLKADDTAVYFCARGGFGSSYWYFDVWGQGSLVTVSS heavy (part 2 of 2): not shown light: DIQLTQSPSSLSASVGDRVSITCKASQDVSIAVAWYQQKPGKAPKLLIYSASYRYTGVPDRFSGSGSGTDFTLTISSLQPEDFAVYYCQQHYITPLTFGAGTKVEIK",binding result,[6],binds
